Results reported in patent US20240261333A1 (published 2024).
One block for each binder: values may come before it.

Experiments:
[1] = biological target: T1, FLAG tagged B3GNT2 (N- or C-terminal FLAG tag) (human, UniProt Q9NY97 1-397); test: co-IP of FLAG tagged B3GNT2 from A375 lysate, Western blot
T1 construct: The text speaks of the co-IP of B3GNT2 without separating the N-FLAG and C-FLAG constructs, so both are held as one molecule; also called N-FLAG B3GNT2; C-FLAG B3GNT2; not shown: FLAG tag at the N- or the C-terminus
T1 sequence (looked up): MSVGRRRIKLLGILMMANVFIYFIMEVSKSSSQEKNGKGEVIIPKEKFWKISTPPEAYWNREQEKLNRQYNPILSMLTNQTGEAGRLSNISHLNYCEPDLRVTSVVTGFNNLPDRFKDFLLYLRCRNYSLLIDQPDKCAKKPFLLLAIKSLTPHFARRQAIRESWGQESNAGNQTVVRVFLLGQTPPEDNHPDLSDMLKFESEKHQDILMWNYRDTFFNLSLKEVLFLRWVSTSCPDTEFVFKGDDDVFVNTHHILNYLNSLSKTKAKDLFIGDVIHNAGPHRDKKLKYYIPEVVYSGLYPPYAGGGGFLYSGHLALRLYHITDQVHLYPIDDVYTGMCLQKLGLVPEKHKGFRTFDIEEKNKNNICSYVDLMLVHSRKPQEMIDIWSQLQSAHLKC
Method: (§1) Cells were plated in 10-cm cell culture dishes and grown to 60-80% confluency. For each condition, two biological replicates were harvested for co-IP. Cells were washed with PBS and 4 mL of lysis buffer (20 mM HEPES, 1% Triton X-100, 150 mM NaCl, 1 mM EDTA, and 10% glycerol) containing protease inhibitor cocktail was added. Cells were scraped and lysate was incubated at 4° C. under rotary agitation for 1 h. Lysate was centrifuged at 14,000×g for 10 min at 4° C. Supernatant was transferred to a new tube and an aliquot was taken as the input. […] For Western blots, 10 μg/mL Chicken Anti-FLAG (Aves labs ET-DY100) and IgY control (R&D Systems AB-101-C) antibodies were biotinylated (Thermo Fisher Scientific 90407) and added to the respective conditions. Lysates with antibodies were incubated at 4° C. under rotary agitation overnight. For each mL of lysate, 50 μL of Pierce Protein A/G Magnetic Beads (Mass spectrometry; Thermo Fisher Scientific 88803) or Pierce Streptavidin Magnetic Beads (Western blot; Thermo Fisher Scientific 88817) was washed twice with lysis buffer. Lysates with antibodies were added to the beads and incubated at 4° C. under rotary agitation for 4 h. Beads were washed with lysis buffer 3 times and resuspended in lysis buffer for storage.

KHDRBS1 = biological target: T2, KHDRBS1 (human, UniProt Q07666 1-443); test: co-IP with mouse anti-FLAG from lysate of cells overexpressing C-FLAG B3GNT2, then mass spectrometry
T2 construct: Identified by mass spectrometry in the co-IP; also called NP_006550.1
Method: as §1
(§2) Magnetic beads were resuspended in 100 mM Tris pH 7.8, reduced, alkylated and digested with trypsin at 37° ° C. overnight. This solution was subjected to solid phase extraction to concentrate the peptides and remove unwanted reagents followed by injection onto a Shimadzu HPLC with fraction collector. Eight fractions were collected and after concentration were injected on a Waters NanoAcquity HPLC equipped with a self-packed Aeris 3 μm C18 analytical column 0.075 mm by 20 cm, (Phenomenex). Peptides were eluted using standard reverse-phase gradients. The effluent from the column was analyzed using a Thermo Orbitrap Elite mass spectrometer (nanospray configuration) operated in a data dependent manner for 54 minutes. The resulting fragmentation spectra were correlated against the known database using Proteome Discover 1.4 (Thermo Fisher Scientific).

ANXA2 = biological target: T3, ANXA2 (human, UniProt P07355-2 1-357, limits assumed); test: as above
T3 construct: Identified by mass spectrometry in the co-IP; also called NP_001002858.1 (+1)
Method: as §1, §2

CAPRIN1 = biological target: T4, CAPRIN1 (human, UniProt Q14444 2-709); test: as above
T4 construct: Identified by mass spectrometry in the co-IP; also called NP_005889.3 (+1)
T4 sequence (looked up): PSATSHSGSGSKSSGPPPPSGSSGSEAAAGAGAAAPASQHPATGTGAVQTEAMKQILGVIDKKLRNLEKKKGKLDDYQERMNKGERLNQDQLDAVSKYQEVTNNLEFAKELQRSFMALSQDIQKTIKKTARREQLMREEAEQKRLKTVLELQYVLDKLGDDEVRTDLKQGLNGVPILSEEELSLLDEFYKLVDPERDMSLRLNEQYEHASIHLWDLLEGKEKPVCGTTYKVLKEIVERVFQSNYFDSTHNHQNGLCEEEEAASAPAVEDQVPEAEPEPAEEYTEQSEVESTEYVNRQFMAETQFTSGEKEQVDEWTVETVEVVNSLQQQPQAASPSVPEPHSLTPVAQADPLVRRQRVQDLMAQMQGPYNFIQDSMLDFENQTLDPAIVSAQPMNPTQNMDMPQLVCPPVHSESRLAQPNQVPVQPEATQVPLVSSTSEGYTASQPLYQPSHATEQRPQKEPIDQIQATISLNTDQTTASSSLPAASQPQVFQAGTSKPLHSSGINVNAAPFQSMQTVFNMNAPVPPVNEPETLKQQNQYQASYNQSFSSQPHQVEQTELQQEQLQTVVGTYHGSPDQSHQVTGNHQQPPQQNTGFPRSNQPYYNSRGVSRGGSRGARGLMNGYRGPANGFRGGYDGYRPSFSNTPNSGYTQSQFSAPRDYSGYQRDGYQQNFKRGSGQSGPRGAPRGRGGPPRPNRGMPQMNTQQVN
Method: as §1, §2

PABPC1 = biological target: T5, PABPC1 (human, UniProt P11940 1-636); test: as above
T5 construct: Identified by mass spectrometry in the co-IP; also called NP_002559.2
Method: as §1, §2

VIM = biological target: T6, VIM (human, UniProt P08670 2-466); test: as above
T6 construct: Identified by mass spectrometry in the co-IP; also called NP_003371.2
Method: as §1, §2

CPSF6 = biological target: T7, CPSF6 (human, UniProt Q16630-2 1-588, limits assumed); test: as above
T7 construct: Identified by mass spectrometry in the co-IP; also called NP_001287876.1 (+3)
T7 sequence (looked up): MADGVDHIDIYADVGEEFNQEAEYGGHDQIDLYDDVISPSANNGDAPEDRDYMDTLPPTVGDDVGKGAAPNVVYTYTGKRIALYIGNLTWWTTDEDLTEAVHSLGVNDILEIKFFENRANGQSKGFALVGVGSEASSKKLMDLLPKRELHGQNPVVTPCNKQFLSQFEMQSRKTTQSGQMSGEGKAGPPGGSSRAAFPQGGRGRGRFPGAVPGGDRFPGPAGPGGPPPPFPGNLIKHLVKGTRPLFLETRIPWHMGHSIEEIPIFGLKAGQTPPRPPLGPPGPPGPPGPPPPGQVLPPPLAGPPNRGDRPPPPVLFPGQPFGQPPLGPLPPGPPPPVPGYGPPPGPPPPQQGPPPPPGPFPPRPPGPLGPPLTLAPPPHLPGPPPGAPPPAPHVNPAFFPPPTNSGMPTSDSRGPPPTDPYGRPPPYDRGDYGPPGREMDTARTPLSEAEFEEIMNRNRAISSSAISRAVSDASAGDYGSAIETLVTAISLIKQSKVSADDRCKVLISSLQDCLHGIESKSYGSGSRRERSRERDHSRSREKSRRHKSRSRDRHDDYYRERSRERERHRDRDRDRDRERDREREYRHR
Method: as §1, §2

CASC3 = biological target: T8, CASC3 (human, UniProt O15234 1-703); test: as above
T8 construct: Identified by mass spectrometry in the co-IP; also called NP_031385.2
Method: as §1, §2

T2 sequence (Q07666 whole entry): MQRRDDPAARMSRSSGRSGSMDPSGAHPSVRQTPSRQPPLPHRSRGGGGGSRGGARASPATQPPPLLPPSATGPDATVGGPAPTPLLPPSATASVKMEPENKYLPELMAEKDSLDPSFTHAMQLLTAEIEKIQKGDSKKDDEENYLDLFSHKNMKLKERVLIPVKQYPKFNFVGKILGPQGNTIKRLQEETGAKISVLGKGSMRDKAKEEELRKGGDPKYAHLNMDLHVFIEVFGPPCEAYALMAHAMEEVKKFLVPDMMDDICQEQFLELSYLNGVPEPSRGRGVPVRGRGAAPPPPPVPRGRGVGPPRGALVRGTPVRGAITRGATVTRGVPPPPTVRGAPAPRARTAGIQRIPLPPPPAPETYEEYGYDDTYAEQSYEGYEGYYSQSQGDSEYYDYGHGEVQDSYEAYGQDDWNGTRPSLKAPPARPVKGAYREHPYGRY
T3 sequence (P07355 other isoform, or with tags, fused parts or gaps limits assumed): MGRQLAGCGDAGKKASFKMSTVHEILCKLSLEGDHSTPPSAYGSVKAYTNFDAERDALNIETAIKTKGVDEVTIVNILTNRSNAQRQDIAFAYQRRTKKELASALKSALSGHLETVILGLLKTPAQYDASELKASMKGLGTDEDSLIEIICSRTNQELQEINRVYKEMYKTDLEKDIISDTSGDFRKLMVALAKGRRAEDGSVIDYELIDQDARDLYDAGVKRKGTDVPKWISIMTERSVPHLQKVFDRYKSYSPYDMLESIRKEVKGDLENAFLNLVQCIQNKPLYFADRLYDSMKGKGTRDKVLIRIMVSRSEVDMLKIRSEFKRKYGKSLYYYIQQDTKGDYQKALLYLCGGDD
T6 sequence (P08670 2-466 limits assumed): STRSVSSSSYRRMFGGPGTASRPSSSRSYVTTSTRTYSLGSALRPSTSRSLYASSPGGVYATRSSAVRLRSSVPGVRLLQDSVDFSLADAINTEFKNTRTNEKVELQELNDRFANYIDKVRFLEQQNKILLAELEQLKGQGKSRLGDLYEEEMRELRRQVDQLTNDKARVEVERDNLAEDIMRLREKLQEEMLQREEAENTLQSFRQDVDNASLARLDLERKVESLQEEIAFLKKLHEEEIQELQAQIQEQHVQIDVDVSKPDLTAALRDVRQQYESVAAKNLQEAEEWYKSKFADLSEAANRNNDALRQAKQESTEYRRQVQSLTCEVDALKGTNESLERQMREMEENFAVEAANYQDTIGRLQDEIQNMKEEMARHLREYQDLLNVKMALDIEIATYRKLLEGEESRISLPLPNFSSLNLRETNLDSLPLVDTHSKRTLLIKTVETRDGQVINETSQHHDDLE
T8 sequence (O15234 whole entry): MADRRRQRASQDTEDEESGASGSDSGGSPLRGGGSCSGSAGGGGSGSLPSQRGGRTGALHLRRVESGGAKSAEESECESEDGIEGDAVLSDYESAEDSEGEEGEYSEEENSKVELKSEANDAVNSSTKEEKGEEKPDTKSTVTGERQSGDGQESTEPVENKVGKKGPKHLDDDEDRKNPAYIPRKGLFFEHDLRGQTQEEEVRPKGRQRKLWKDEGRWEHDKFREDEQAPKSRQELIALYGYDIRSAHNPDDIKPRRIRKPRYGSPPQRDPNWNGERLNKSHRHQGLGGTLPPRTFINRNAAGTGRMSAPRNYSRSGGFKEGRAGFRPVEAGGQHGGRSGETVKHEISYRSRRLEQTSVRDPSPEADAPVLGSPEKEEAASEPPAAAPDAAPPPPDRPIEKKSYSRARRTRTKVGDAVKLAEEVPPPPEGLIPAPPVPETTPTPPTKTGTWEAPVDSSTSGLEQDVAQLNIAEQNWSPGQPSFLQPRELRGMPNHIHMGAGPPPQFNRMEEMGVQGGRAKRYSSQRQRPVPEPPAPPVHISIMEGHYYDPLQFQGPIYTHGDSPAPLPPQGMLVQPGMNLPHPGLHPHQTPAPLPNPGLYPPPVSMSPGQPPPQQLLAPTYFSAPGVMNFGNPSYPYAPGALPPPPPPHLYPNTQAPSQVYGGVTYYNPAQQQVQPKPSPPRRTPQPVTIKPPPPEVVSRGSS
T5 sequence (P11940 whole entry): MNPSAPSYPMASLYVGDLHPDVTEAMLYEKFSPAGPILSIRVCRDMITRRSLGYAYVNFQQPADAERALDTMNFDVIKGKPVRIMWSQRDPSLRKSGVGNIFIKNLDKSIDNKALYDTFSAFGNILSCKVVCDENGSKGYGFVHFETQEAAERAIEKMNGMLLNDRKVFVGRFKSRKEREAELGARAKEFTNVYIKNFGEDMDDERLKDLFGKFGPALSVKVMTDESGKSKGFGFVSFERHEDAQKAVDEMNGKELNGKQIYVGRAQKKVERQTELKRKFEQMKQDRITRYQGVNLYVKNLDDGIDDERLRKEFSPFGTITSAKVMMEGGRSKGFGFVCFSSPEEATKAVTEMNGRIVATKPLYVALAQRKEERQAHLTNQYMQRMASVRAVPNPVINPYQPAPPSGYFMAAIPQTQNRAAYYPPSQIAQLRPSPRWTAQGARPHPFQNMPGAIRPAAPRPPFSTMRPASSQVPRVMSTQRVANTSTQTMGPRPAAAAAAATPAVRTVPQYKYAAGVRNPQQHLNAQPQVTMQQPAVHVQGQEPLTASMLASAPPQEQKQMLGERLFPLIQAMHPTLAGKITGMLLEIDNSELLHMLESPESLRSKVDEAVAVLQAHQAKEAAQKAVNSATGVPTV

binding result [1]: binds
B1: CD70, endogenous in A375 melanoma cells (ligand, human, UniProt P32970 1-193, looked up)
chain: MPEEGSGCSVRRRPYGCVLRAALVPLVAGLVICLVVCIQRFAQAQQQLPLESLGWDVAELQLNHTGPQQDPRLYWQGGPALGRSFLHGPELDKGQLRIHRDGIYMVHIQVTLAICSSTTASRHHPTTLAVGICSPASRSISLLRLSFHQGCTIASQRLTPLARGDTLCTNLTGTLLPSRNTDETFFGVQWVRP
modifications: poly-LacNAc glycosylation added by B3GNT2 (sites not given)
notes: whole, on cells; In the co-IP it comes from the lysate of A375 cells

co-IP mass spectrometry count (C-term flag) (KHDRBS1): 9
co-IP mass spectrometry count (C-term flag) (ANXA2): 15
co-IP mass spectrometry count (C-term flag) (CAPRIN1): 6
co-IP mass spectrometry count (C-term flag) (PABPC1): 41
co-IP mass spectrometry count (C-term flag) (VIM): 411
co-IP mass spectrometry count (C-term flag) (CPSF6): 35
co-IP mass spectrometry count (C-term flag) (CASC3): 0
B2: C-terminal FLAG tagged B3GNT2 (enzyme, human, UniProt Q9NY97 1-397, looked up)
chain: MSVGRRRIKLLGILMMANVFIYFIMEVSKSSSQEKNGKGEVIIPKEKFWKISTPPEAYWNREQEKLNRQYNPILSMLTNQTGEAGRLSNISHLNYCEPDLRVTSVVTGFNNLPDRFKDFLLYLRCRNYSLLIDQPDKCAKKPFLLLAIKSLTPHFARRQAIRESWGQESNAGNQTVVRVFLLGQTPPEDNHPDLSDMLKFESEKHQDILMWNYRDTFFNLSLKEVLFLRWVSTSCPDTEFVFKGDDDVFVNTHHILNYLNSLSKTKAKDLFIGDVIHNAGPHRDKKLKYYIPEVVYSGLYPPYAGGGGFLYSGHLALRLYHITDQVHLYPIDDVYTGMCLQKLGLVPEKHKGFRTFDIEEKNKNNICSYVDLMLVHSRKPQEMIDIWSQLQSAHLKC
notes: FLAG-tagged ORF overexpressed in A375 cells; bait of the co-IP with mouse anti-FLAG; also called C-FLAG B3GNT2; C-term flag; not shown: C-terminal FLAG tag

binding result [1]: binds
B5: FAS, endogenous in A375 melanoma cells (receptor, human, UniProt P25445 26-335, looked up)
chain: QVTDINSKGLELRKTVTTVETQNLEGLHHDGQFCHKPCPPGERKARDCTVNGDEPDCVPCQEGKEYTDKAHFSSKCRRCRLCDEGHGLEVEINCTRTQNTKCRCKPNFFCNSTVCEHCDPCTKCEHGIIKECTLTSNTKCKEEGSRSNLGWLCLLLLPIPLIVWVKRKEVQKTCRKHRKENQGSHESPTLNPETVAINLSDVDLSKYITTIAGVMTLSQVKGFVRKNGVNEAKIDEIKNDNVQDTAEQKVQLLRNWHQLHGKKEAYDTLIKDLKKANLCTLAEKIQTIILKDITSDSENSNFRNEIQSLV
modifications: poly-LacNAc glycosylation added by B3GNT2 (sites not given)
notes: whole, on cells; In the co-IP it comes from the lysate of A375 cells; also called Fas receptor

Continued, binder first:

B3: IFNGR2, endogenous in A375 melanoma cells (receptor, human, UniProt P38484 22-337, looked up)
chain: APPDPLSQLPAPQHPKIRLYNAEQVLSWEPVALSNSTRPVVYQVQFKYTDSKWFTADIMSIGVNCTQITATECDFTAASPSAGFPMDFNVTLRLRAELGALHSAWVTMPWFQHYRNVTVGPPENIEVTPGEGSLIIRFSSPFDIADTSTAFFCYYVHYWEKGGIQQVKGPFRSNSISLDNLKPSRVYCLQVQAQLLWNKSNIFRVGHLSNISCYETMADASTELQQVILISVGTFSLLSVLAGACFFLVLKYRGLIKYWFHTPPSIPLQIEEYLKDPTQPILEALDKDSSPKDDVWDSVSIISFPEKEQEDVLQTL
modifications: poly-LacNAc glycosylation added by B3GNT2 (sites not given)
notes: as for B1
binding result [1]: binds

B4: MICB, endogenous in A375 melanoma cells (ligand, human, UniProt Q29980 23-383, looked up)
chain: AEPHSLRYNLMVLSQDGSVQSGFLAEGHLDGQPFLRYDRQKRRAKPQGQWAENVLGAKTWDTETEDLTENGQDLRRTLTHIKDQKGGLHSLQEIRVCEIHEDSSTRGSRHFYYDGELFLSQNLETQESTVPQSSRAQTLAMNVTNFWKEDAMKTKTHYRAMQADCLQKLQRYLKSGVAIRRTVPPMVNVTCSEVSEGNITVTCRASSFYPRNITLTWRQDGVSLSHNTQQWGDVLPDGNGTYQTWVATRIRQGEEQRFTCYMEHSGNHGTHPVPSGKALVLQSQRTDFPYVSAAMPCFVIIIILCVPCCKKKTSAAEGPELVSLQVLDQHPVGTGDHRDAAQLGFQPLMSATGSTGSTEGT
modifications: poly-LacNAc glycosylation added by B3GNT2 (sites not given)
notes: whole, on cells; On fixed A375 cells in flow cytometry; In the co-IP it comes from the lysate of these cells
binding result [1]: binds

B6: CD58, endogenous in A375 melanoma cells (ligand, human, UniProt P19256 29-250, looked up)
chain: FSQQIYGVVYGNVTFHVPSNVPLKEVLWKKQKDKVAELENSEFRAFSSFKNRVYLDTVSGSLTIYNLTSSDEDEYEMESPNITDTMKFFLYVLESLPSPTLTCALTNGSIEVQCMIPEHYNSHRGLIMYSWDCPMEQCKRNSTSIYFKMENDLPQKIQCTLSNPLFNTTSSIILTTCIPSSGHSRHRYALIPIPLAVITTCIVLYMNGILKCDRKPDRTNSN
modifications: poly-LacNAc glycosylation added by B3GNT2 (sites not given)
notes: as for B4
binding result [1]: binds
